{"source": "patent US4446316A", "about": "“Dextran derivative of fibrinolysin” (Vsesojuzny Kardiologichesky Nauchny Tsentr, priority 1980, dated 1984)", "key": {"[1]": {"test_system": "thromboses of a rabbit's jugular vein", "test": "Thrombolytic activity on model of thrombosis of rabbit's jugular vein (lysis of thrombus)", "assay_type": "in vivo", "settings": "rabbits", "excerpt": "(§1) The study of the specific (thrombolytic) effect of the polysaccharide fibrinolysin derivative according to the present invention has been studied on models of thromboses of a rabbit's jugular vein and a dog's femoral vein or artery. Thrombi of 1 to 2.5 cm size were formed in the above-mentioned animals which fully obliterated the cross-section of a blood vessel. The administration of the test preparation at the background of heparin was started one hour after the thrombus formation.\n(§2) On the basis of an expected prolonged fibrinolytic effect of the preparation according to the present invention, a test dose of the preparation ranging from 400 to 4,000 units per kg of the bodyweight is dissolved in a physiological solution, 20-30 ml for rabbits and 50-100 ml for dogs, and injected by means of a syringe in a jet-like manner intravenously over 20 minutes, not following the instruction on the use of fibrinolysin (intravenously by the dropwise method at a rate of 10-12 drops per minute).\n(§3) The dynamics of the thrombus formation and lysis was observed visually and by palpation during 6 hours of the experiment, after one, two and three days. The angiography and fluorometry were carried out prior to the beginning of the treatment and one day after the administration of the preparation."}, "[2]": {"test_system": "thromboses of a dog's femoral vein or artery", "test": "Thrombolytic activity on model of thrombosis of dog's femoral vein (lysis of thrombus)", "assay_type": "in vivo", "settings": "dogs, femoral vein, 600 units/kg i.v., n=3", "excerpt": "as §1, §2, §3"}, "[3]": {"test_system": "euglobulin fraction of dog's plasma", "test": "Lysis duration of the euglobulin fraction of dog's plasma with experimental thrombosis", "assay_type": "in vivo", "excerpt": "(§4) The prolonged effect of the fibrinolysin derivative according to the present invention has been studied in experiments on dogs in comparison with the effect of native fibrinolysin.\nVariation of lysis duration (in minutes) of the euglobulin\nfraction of dog's plasma with experimental thrombosis upon\nadministration of the fibrinolysin derivative according to\nthe present invention and native fibrinolysin"}, "thrombin time": {"test_system": "thrombin time", "test": "Thrombin time in dogs with experimental thrombosis", "assay_type": "in vivo, dog", "excerpt": "as §4\nVariation of thrombin time (in seconds) in dogs with expe-\nrimental thrombosis after administration of the fibrinolysin\nderivative according to the present invention and native"}, "Mice": {"test_system": "Mice", "test": "Toxicity upon intravenous injection in mice", "assay_type": "in vivo, white mice", "settings": "i.v.", "excerpt": "(§5) The toxicity of the fibrinolysin derivative according to the present invention was studied on white mice, rats, rabbits and dogs.\n(§6) Toxicity of the fibrinolysin derivative of the invention\n(§7) for animals of different species upon intravenous injection"}, "Rats": {"test_system": "Rats", "test": "Toxicity upon intravenous injection in rats", "assay_type": "in vivo", "settings": "i.v.", "excerpt": "as §5, §6, §7"}, "Rabbits": {"test_system": "Rabbits", "test": "Toxicity upon intravenous injection in rabbits", "assay_type": "in vivo", "settings": "i.v.", "excerpt": "as §5, §6, §7"}, "Dogs": {"test_system": "Dogs", "test": "Toxicity upon intravenous injection in dogs", "assay_type": "in vivo", "settings": "i.v.", "excerpt": "as §5, §6, §7"}, "[4]": {"test_system": "white mice, rats, rabbits and dogs", "test": "Toxicity, general findings in white mice, rats, rabbits and dogs", "assay_type": "in vivo", "settings": "for Death of animals: single i.v. dose exceeding the therapeutic dose by 4-5 times", "excerpt": "as §5"}, "blood coagulation": {"test_system": "blood coagulation", "test": "Blood coagulation and bleeding during therapy of experimental thrombosis", "assay_type": "in vivo, rabbit", "settings": "during treatment", "excerpt": "as §1, §2, §3"}, "experimental thrombosis": {"test_system": "experimental thrombosis", "test": "Duration of fibrinolytic effect and effective dose in experimental thrombosis", "assay_type": "in vivo, rabbits, dogs", "excerpt": "as §1, §2, §3"}, "[5]": {"test": "Solubility and hygroscopicity of the preparation", "assay_type": "physicochemical"}, "[6]": {"settings": "prior-art product (Kardiologiya, 1977); cited from earlier work"}, "[7]": {"settings": "before administration (baseline)"}}, "note": "“Also recorded” adds a separate entry of the source.", "data": [{"molecule": "Fibrinolysin derivative of the invention: fibrinolysin covalently bonded to dextran dialdehyde (molecular mass 20,000 to 110,000), reduced with sodium borohydride (conjugate, UniProt P00747 20-580; P00747 581-810, looked up, Plasmin dextran dialdehyde conjugate, borohydride reduced, fibrinolysin covalently bonded to dextran dialdehyde (molecular mass 20,000 to 110,000), reduced with sodium borohydride) Plasmin heavy chain A: EPLDDYVNTQGASLFSVTKKQLGAGSIEECAAKCEEDEEFTCRAFQYHSKEQQCVIMAENRKSSIIIRMRDVVLFEKKVYLSECKTGNGKNYRGTMSKTKNGITCQKWSSTSPHRPRFSPATHPSEGLEENYCRNPDNDPQGPWCYTTDPEKRYDYCDILECEEECMHCSGENYDGKISKTMSGLECQAWDSQSPHAHGYIPSKFPNKNLKKNYCRNPDRELRPWCFTTDPNKRWELCDIPRCTTPPPSSGPTYQCLKGTGENYRGNVAVTVSGHTCQHWSAQTPHTHNRTPENFPCKNLDENYCRNPDGKRAPWCHTTNSQVRWEYCKIPSCDSSPVSTEQLAPTAPPELTPVVQDCYHGDGQSYRGTSSTTTTGKKCQSWSSMTPHRHQKTPENYPNAGLTMNYCRNPDADKGPWCFTTDPSVRWEYCNLKKCSGTEASVVAPPPVVLLPDVETPSEEDCMFGNGKGYRGKRATTVTGTPCQDWAAQEPHRHSIFTPETNPRAGLEKNYCRNPDGDVGGPWCYTTNPRKLYDYCDVPQCAAPSFDCGKPQVEPKKCPGR Plasmin light chain B: VVGGCVAHPHSWPWQVSLRTRFGMHFCGGTLISPEWVLTAAHCLEKSPRPSSYKVILGAHQEVNLEPHVQEIEVSRLFLEPTRKDIALLKLSSPAVITDKVIPACLPSPNYVVADRTECFITGWGETQGTFGAGLLKEAQLPVIENKVCNRYEFLNGRVQSTELCAGHLAGGTDSCQGDSGGPLVCFEKDKYILQGVTSWGLGCARPNKPGVYVRVSRFVTWIEGVMRNN", "values": [{"measurement": "Efficiency of the therapy (lysis of thrombus)", "setting": "[1]; 400 units/kg i.v., n=7", "result": "full lysis"}, {"measurement": "Efficiency of the therapy (lysis of thrombus)", "setting": "[1]; 600 units/kg i.v.", "result": "full lysis"}, {"measurement": "Efficiency of the therapy (lysis of thrombus)", "setting": "[2]", "result": "full lysis"}, {"measurement": "Lysis duration of the euglobulin fraction", "setting": "[3]; after 2 hours", "result": 90, "unit": "min"}, {"measurement": "Lysis duration of the euglobulin fraction", "setting": "[3]; after 1 day", "result": 1, "unit": "min"}, {"measurement": "Lysis duration of the euglobulin fraction", "setting": "[3]; after 2 days", "result": 10, "unit": "min"}, {"measurement": "Lysis duration of the euglobulin fraction, initial parameter", "setting": "[3]; [7]", "result": 70, "unit": "min"}, {"measurement": "Thrombin time", "setting": "thrombin time; after 2 hours", "result": 90, "unit": "s"}, {"measurement": "Thrombin time", "setting": "thrombin time; after 1 day", "result": 92, "unit": "s"}, {"measurement": "Thrombin time", "setting": "thrombin time; after 2 days", "result": 210, "unit": "s"}, {"measurement": "Thrombin time, initial parameter", "setting": "thrombin time; [7]", "result": 35, "unit": "s"}, {"measurement": "LD50", "setting": "Mice", "result": 5000, "unit": "un./kg"}, {"measurement": "Toxicity test result (dead/survived, not defined)", "setting": "Mice; 2000 un/kg", "result": "0/6"}, {"measurement": "Toxicity test result (dead/survived, not defined)", "setting": "Mice; 2500 un/kg", "result": "0/6"}, {"measurement": "Toxicity test result (dead/survived, not defined)", "setting": "Mice; 5000 un/kg", "result": "2/4"}, {"measurement": "Toxicity test result (dead/survived, not defined)", "setting": "Mice; 6250 un/kg", "result": "6/0"}, {"measurement": "LD50", "setting": "Rats", "result": 4586, "unit": "un./kg"}, {"measurement": "Toxicity test result (dead/survived, not defined)", "setting": "Rats; 2000 un/kg", "result": "0/6"}, {"measurement": "Toxicity test result (dead/survived, not defined)", "setting": "Rats; 2500 un/kg", "result": "0/6"}, {"measurement": "Toxicity test result (dead/survived, not defined)", "setting": "Rats; 3750 un/kg", "result": "2/4"}, {"measurement": "Toxicity test result (dead/survived, not defined)", "setting": "Rats; 5000 un/kg", "result": "3/3"}, {"measurement": "Toxicity test result (dead/survived, not defined)", "setting": "Rats; 6250 un/kg", "result": "6/0"}, {"measurement": "LD50", "setting": "Rabbits", "result": 1834, "unit": "un./kg"}, {"measurement": "Toxicity test result (dead/survived, not defined)", "setting": "Rabbits; 500 un/kg", "result": "0/6"}, {"measurement": "Toxicity test result (dead/survived, not defined)", "setting": "Rabbits; 1500 un/kg", "result": "2/4"}, {"measurement": "Toxicity test result (dead/survived, not defined)", "setting": "Rabbits; 2000 un/kg", "result": "2/4"}, {"measurement": "Toxicity test result (dead/survived, not defined)", "setting": "Rabbits; 2500 un/kg", "result": "6/0"}, {"measurement": "Toxicity test result (dead/survived, not defined)", "setting": "Dogs; 500 un/kg", "result": "0/3"}, {"measurement": "Toxicity test result (dead/survived, not defined)", "setting": "Dogs; 1000 un/kg", "result": "0/3"}, {"measurement": "Toxicity test result (dead/survived, not defined)", "setting": "Dogs; 1500 un/kg", "result": "0/1"}, {"measurement": "Toxicity", "setting": "[4]; compared with native fibrinolysin / overall statement, listed as fibrinolysin derivative according to the present invention", "result": "low toxicity"}, {"measurement": "Effect on the vessels", "setting": "[4]; in the test doses", "result": "no injuring effect on the vessels"}, {"measurement": "Macro- and microscopic changes in the inner organs", "setting": "[4]; in the test doses", "result": "no macro- and microscopic changes in the inner organs"}, {"measurement": "Effect on the central nervous system and blood pressure", "setting": "[4]; in therapeutical doses", "result": "no effect on the central nervous system and blood pressure"}, {"measurement": "Death of animals", "setting": "[4]; listed as fibrinolysin derivative according to the present invention", "result": "does not result in death of animals"}, {"measurement": "Death of animals", "setting": "[4]; listed as fibrinolysin derivative of the present invention", "result": "does not result in their death"}, {"measurement": "Bleeding", "setting": "blood coagulation", "result": "not accompanied by bleeding"}, {"measurement": "Changes in the third phase of blood coagulation", "setting": "blood coagulation", "result": "no sharp changes in the third phase of blood coagulation"}, {"measurement": "Normalization of changes in the blood clotting system", "setting": "experimental thrombosis; after administration", "result": "on the second day"}, {"measurement": "Duration of the fibrinolytic effect", "setting": "experimental thrombosis; after administration, listed as fibrinolysin derivative according to the present invention", "result": "up to two days after administration; also recorded: observed also on the second day"}, {"measurement": "Minimal effective (therapeutical) dose", "setting": "experimental thrombosis; single intravenous jet-like infusion", "result": 400, "unit": "units/kg"}, {"measurement": "Prolongation of the effect as compared to native fibrinolysin", "setting": "experimental thrombosis; vs native fibrinolysin", "result": "2-3 times"}, {"measurement": "Solubility in 0.9% isotonic solution of sodium chloride", "setting": "[5]; 0.9% sodium chloride", "result": "readily soluble"}, {"measurement": "Solubility in 95% ethanol", "setting": "[5]; 95% ethanol", "result": "substantially insoluble"}, {"measurement": "Solubility in chloroform", "setting": "[5]; chloroform", "result": "substantially insoluble"}, {"measurement": "Solubility in ether", "setting": "[5]; ether", "result": "substantially insoluble"}, {"measurement": "Hygroscopicity", "setting": "[5]; lyophilized powder", "result": "hygroscopic"}, {"measurement": "Solubility in water", "setting": "[5]; water", "result": "readily soluble"}]}, {"molecule": "derivative of fibrinolysin with aldehyde-containing sephadex: fibrinolysin reacted with a modified aldehyde-containing sephadex in a phosphate buffer at 4° C. (conjugate, UniProt P00747 20-580; P00747 581-810, looked up, plasmin conjugated to aldehyde-containing Sephadex) Plasmin heavy chain A: EPLDDYVNTQGASLFSVTKKQLGAGSIEECAAKCEEDEEFTCRAFQYHSKEQQCVIMAENRKSSIIIRMRDVVLFEKKVYLSECKTGNGKNYRGTMSKTKNGITCQKWSSTSPHRPRFSPATHPSEGLEENYCRNPDNDPQGPWCYTTDPEKRYDYCDILECEEECMHCSGENYDGKISKTMSGLECQAWDSQSPHAHGYIPSKFPNKNLKKNYCRNPDRELRPWCFTTDPNKRWELCDIPRCTTPPPSSGPTYQCLKGTGENYRGNVAVTVSGHTCQHWSAQTPHTHNRTPENFPCKNLDENYCRNPDGKRAPWCHTTNSQVRWEYCKIPSCDSSPVSTEQLAPTAPPELTPVVQDCYHGDGQSYRGTSSTTTTGKKCQSWSSMTPHRHQKTPENYPNAGLTMNYCRNPDADKGPWCFTTDPSVRWEYCNLKKCSGTEASVVAPPPVVLLPDVETPSEEDCMFGNGKGYRGKRATTVTGTPCQDWAAQEPHRHSIFTPETNPRAGLEKNYCRNPDGDVGGPWCYTTNPRKLYDYCDVPQCAAPSFDCGKPQVEPKKCPGR Plasmin light chain B: VVGGCVAHPHSWPWQVSLRTRFGMHFCGGTLISPEWVLTAAHCLEKSPRPSSYKVILGAHQEVNLEPHVQEIEVSRLFLEPTRKDIALLKLSSPAVITDKVIPACLPSPNYVVADRTECFITGWGETQGTFGAGLLKEAQLPVIENKVCNRYEFLNGRVQSTELCAGHLAGGTDSCQGDSGGPLVCFEKDKYILQGVTSWGLGCARPNKPGVYVRVSRFVTWIEGVMRNN", "values": [{"measurement": "Solubility in water and aqueous solutions", "setting": "[6]", "result": "not soluble"}]}]}
